Measured values from EP4792821A2 (Beijing Youcare Kechuang Pharmaceutical Technology Co., Ltd., dated 2026).
Where no end group is shown, it is not given here. The star is where a group is joined. Succinyl(4-O-cholesteryl) = CC(C)CCC[C@@H](C)[C@H]1CC[C@H]2[C@@H]3CC=C4C[C@@H](OC(=O)CCC(=O)*)CC[C@]4(C)[C@H]3CC[C@]12C

B1: Compound 37 (peptide)
peptide: Ac-FDELVNKKIEKIEEVNKKSLKLLESEAAAKK(Succinyl(4-O-cholesteryl))-NH2
SMILES: CC[C@H](C)[C@H](NC(=O)[C@H](CCCCN)NC(=O)[C@H](CCCCN)NC(=O)[C@H](CC(N)=O)NC(=O)[C@@H](NC(=O)[C@H](CC(C)C)NC(=O)[C@H](CCC(=O)O)NC(=O)[C@H](CC(=O)O)NC(=O)[C@H](Cc1ccccc1)NC(C)=O)C(C)C)C(=O)N[C@@H](CCC(=O)O)C(=O)N[C@@H](CCCCN)C(=O)N[C@H](C(=O)N[C@@H](CCC(=O)O)C(=O)N[C@@H](CCC(=O)O)C(=O)N[C@H](C(=O)N[C@@H](CC(N)=O)C(=O)N[C@@H](CCCCN)C(=O)N[C@@H](CCCCN)C(=O)N[C@@H](CO)C(=O)N[C@@H](CC(C)C)C(=O)N[C@@H](CCCCN)C(=O)N[C@@H](CC(C)C)C(=O)N[C@@H](CC(C)C)C(=O)N[C@@H](CCC(=O)O)C(=O)N[C@@H](CO)C(=O)N[C@@H](CCC(=O)O)C(=O)N[C@@H](C)C(=O)N[C@@H](C)C(=O)N[C@@H](C)C(=O)N[C@@H](CCCCN)C(=O)N[C@@H](CCCCNC(=O)CCC(=O)O[C@H]1CC[C@@]2(C)C(=CC[C@H]3[C@@H]4CC[C@H]([C@H](C)CCCC(C)C)[C@@]4(C)CC[C@@H]32)C1)C(N)=O)C(C)C)[C@@H](C)CC
B2: Compound 34 (peptide)
peptide: Ac-FDEEVNKKIEQSLKINQSLEEIRKSEAAAKK(Succinyl(4-O-cholesteryl))-NH2
SMILES: CC[C@H](C)[C@H](NC(=O)[C@H](CCC(=O)O)NC(=O)[C@H](CCC(=O)O)NC(=O)[C@H](CC(C)C)NC(=O)[C@H](CO)NC(=O)[C@H](CCC(N)=O)NC(=O)[C@H](CC(N)=O)NC(=O)[C@@H](NC(=O)[C@H](CCCCN)NC(=O)[C@H](CC(C)C)NC(=O)[C@H](CO)NC(=O)[C@H](CCC(N)=O)NC(=O)[C@H](CCC(=O)O)NC(=O)[C@@H](NC(=O)[C@H](CCCCN)NC(=O)[C@H](CCCCN)NC(=O)[C@H](CC(N)=O)NC(=O)[C@@H](NC(=O)[C@H](CCC(=O)O)NC(=O)[C@H](CCC(=O)O)NC(=O)[C@H](CC(=O)O)NC(=O)[C@H](Cc1ccccc1)NC(C)=O)C(C)C)[C@@H](C)CC)[C@@H](C)CC)C(=O)N[C@@H](CCCNC(=N)N)C(=O)N[C@@H](CCCCN)C(=O)N[C@@H](CO)C(=O)N[C@@H](CCC(=O)O)C(=O)N[C@@H](C)C(=O)N[C@@H](C)C(=O)N[C@@H](C)C(=O)N[C@@H](CCCCN)C(=O)N[C@@H](CCCCNC(=O)CCC(=O)O[C@H]1CC[C@@]2(C)C(=CC[C@H]3[C@@H]4CC[C@H]([C@H](C)CCCC(C)C)[C@@]4(C)CC[C@@H]32)C1)C(N)=O
B3: Compound 36 (peptide)
peptide: Ac-VNKKIEEEKQSLKKQSDKIEESDENEAAAKK(Succinyl(4-O-cholesteryl))-NH2
SMILES: CC[C@H](C)[C@H](NC(=O)[C@H](CCCCN)NC(=O)[C@H](CC(=O)O)NC(=O)[C@H](CO)NC(=O)[C@H](CCC(N)=O)NC(=O)[C@H](CCCCN)NC(=O)[C@H](CCCCN)NC(=O)[C@H](CC(C)C)NC(=O)[C@H](CO)NC(=O)[C@H](CCC(N)=O)NC(=O)[C@H](CCCCN)NC(=O)[C@H](CCC(=O)O)NC(=O)[C@H](CCC(=O)O)NC(=O)[C@H](CCC(=O)O)NC(=O)[C@@H](NC(=O)[C@H](CCCCN)NC(=O)[C@H](CCCCN)NC(=O)[C@H](CC(N)=O)NC(=O)[C@@H](NC(C)=O)C(C)C)[C@@H](C)CC)C(=O)N[C@@H](CCC(=O)O)C(=O)N[C@@H](CCC(=O)O)C(=O)N[C@@H](CO)C(=O)N[C@@H](CC(=O)O)C(=O)N[C@@H](CCC(=O)O)C(=O)N[C@@H](CC(N)=O)C(=O)N[C@@H](CCC(=O)O)C(=O)N[C@@H](C)C(=O)N[C@@H](C)C(=O)N[C@@H](C)C(=O)N[C@@H](CCCCN)C(=O)N[C@@H](CCCCNC(=O)CCC(=O)O[C@H]1CC[C@@]2(C)C(=CC[C@H]3[C@@H]4CC[C@H]([C@H](C)CCCC(C)C)[C@@]4(C)CC[C@@H]32)C1)C(N)=O
B4: Compound 39 (peptide)
peptide: Ac-WDEFDASISQNEKINQSLEEIRKSDELLHNNALEAAAKK(Succinyl(4-O-cholesteryl))-NH2
SMILES: CC[C@H](C)[C@H](NC(=O)[C@H](CO)NC(=O)[C@H](C)NC(=O)[C@H](CC(=O)O)NC(=O)[C@H](Cc1ccccc1)NC(=O)[C@H](CCC(=O)O)NC(=O)[C@H](CC(=O)O)NC(=O)[C@H](Cc1c[nH]c2ccccc12)NC(C)=O)C(=O)N[C@@H](CO)C(=O)N[C@@H](CCC(N)=O)C(=O)N[C@@H](CC(N)=O)C(=O)N[C@@H](CCC(=O)O)C(=O)N[C@@H](CCCCN)C(=O)N[C@H](C(=O)N[C@@H](CC(N)=O)C(=O)N[C@@H](CCC(N)=O)C(=O)N[C@@H](CO)C(=O)N[C@@H](CC(C)C)C(=O)N[C@@H](CCC(=O)O)C(=O)N[C@@H](CCC(=O)O)C(=O)N[C@H](C(=O)N[C@@H](CCCNC(=N)N)C(=O)N[C@@H](CCCCN)C(=O)N[C@@H](CO)C(=O)N[C@@H](CC(=O)O)C(=O)N[C@@H](CCC(=O)O)C(=O)N[C@@H](CC(C)C)C(=O)N[C@@H](CC(C)C)C(=O)N[C@@H](Cc1c[nH]cn1)C(=O)N[C@@H](CC(N)=O)C(=O)N[C@@H](CC(N)=O)C(=O)N[C@@H](C)C(=O)N[C@@H](CC(C)C)C(=O)N[C@@H](CCC(=O)O)C(=O)N[C@@H](C)C(=O)N[C@@H](C)C(=O)N[C@@H](C)C(=O)N[C@@H](CCCCN)C(=O)N[C@@H](CCCCNC(=O)CCC(=O)O[C@H]1CC[C@@]2(C)C(=CC[C@H]3[C@@H]4CC[C@H]([C@H](C)CCCC(C)C)[C@@]4(C)CC[C@@H]32)C1)C(N)=O)[C@@H](C)CC)[C@@H](C)CC
B5: Compound 35 (peptide)
peptide: Ac-SISQVNEKINEIQSLEEKSDKLLKSEAAAKK(Succinyl(4-O-cholesteryl))-NH2
SMILES: CC[C@H](C)[C@H](NC(=O)[C@H](CO)NC(C)=O)C(=O)N[C@@H](CO)C(=O)N[C@@H](CCC(N)=O)C(=O)N[C@H](C(=O)N[C@@H](CC(N)=O)C(=O)N[C@@H](CCC(=O)O)C(=O)N[C@@H](CCCCN)C(=O)N[C@H](C(=O)N[C@@H](CC(N)=O)C(=O)N[C@@H](CCC(=O)O)C(=O)N[C@H](C(=O)N[C@@H](CCC(N)=O)C(=O)N[C@@H](CO)C(=O)N[C@@H](CC(C)C)C(=O)N[C@@H](CCC(=O)O)C(=O)N[C@@H](CCC(=O)O)C(=O)N[C@@H](CCCCN)C(=O)N[C@@H](CO)C(=O)N[C@@H](CC(=O)O)C(=O)N[C@@H](CCCCN)C(=O)N[C@@H](CC(C)C)C(=O)N[C@@H](CC(C)C)C(=O)N[C@@H](CCCCN)C(=O)N[C@@H](CO)C(=O)N[C@@H](CCC(=O)O)C(=O)N[C@@H](C)C(=O)N[C@@H](C)C(=O)N[C@@H](C)C(=O)N[C@@H](CCCCN)C(=O)N[C@@H](CCCCNC(=O)CCC(=O)O[C@H]1CC[C@@]2(C)C(=CC[C@H]3[C@@H]4CC[C@H]([C@H](C)CCCC(C)C)[C@@]4(C)CC[C@@H]32)C1)C(N)=O)[C@@H](C)CC)[C@@H](C)CC)C(C)C

Each binder was assayed against F protein of RSV A long virus strain (Respiratory Syncytial Virus (RSV) A …, UniProt P12568 26-574) (assay: cell-based or functional assay).
F protein of RSV A long virus strain, sequence (P12568 26-574): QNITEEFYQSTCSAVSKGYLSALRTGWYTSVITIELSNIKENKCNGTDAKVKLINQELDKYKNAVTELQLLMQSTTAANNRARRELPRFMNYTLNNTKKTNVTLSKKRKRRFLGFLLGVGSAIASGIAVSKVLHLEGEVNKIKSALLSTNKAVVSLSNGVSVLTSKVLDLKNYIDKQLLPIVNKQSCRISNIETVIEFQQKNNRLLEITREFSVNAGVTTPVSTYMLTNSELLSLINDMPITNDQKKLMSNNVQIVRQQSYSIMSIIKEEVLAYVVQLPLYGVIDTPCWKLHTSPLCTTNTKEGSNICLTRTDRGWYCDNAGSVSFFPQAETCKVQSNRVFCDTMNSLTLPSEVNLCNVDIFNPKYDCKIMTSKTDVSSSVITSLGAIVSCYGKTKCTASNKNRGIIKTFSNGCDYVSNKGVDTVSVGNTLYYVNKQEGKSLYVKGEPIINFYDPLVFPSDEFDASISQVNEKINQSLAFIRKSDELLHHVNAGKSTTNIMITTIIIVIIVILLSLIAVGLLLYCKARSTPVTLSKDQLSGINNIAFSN

Binder | IC50/nM, plaque reduction, RSV A long on HEp-2 cells (Table 2, Cell fusion inhibition activity) [nM]
B1 | 5230
Ac-SLEQVNKINEKINKISQSLKKIEESDKKSDEVNAGLEAAAKK-NH2 [Compound 48] | > 8000
SLEQVNKKIEQSLKFIEKSDKLLENGSGSGK (not fully specified; also: modifications not known) [Positive polypeptide 1] | 150
Ac-WDEFDKKIEEVNKKIEESLKKIEESDKKLEEVNKKL-NH2 [Compound 5] | 1120
B2 | > 2000
VFPSDEFDASISQVNEKINQSLAAIRKSDELLHNV (not fully specified; also: modifications not known) [Positive polypeptide 6] | > 300
IEEVNKKIEESLKKIEESDKKLEEVNKKKEAAAKK (not fully specified; also: modifications not known) [Positive polypeptide 3] | > 300
IEQVNKKIEQSLKFIEKSDKLLENVNKGKCEAAAKK (not fully specified; also: modifications not known) [Positive polypeptide 4] | 190
LEQVNKKIEQSLKFIEKSDKLLENVNKGKCEAAAKK (not fully specified; also: modifications not known) [Positive polypeptide 5] | > 300
Ac-SLEQVNKINKKIDKIEESLKKIEESDKKSLEVNKKLEAAAKK-NH2 [Compound 47] | > 8000
Ac-FEVNRRRIEQSLEKSLESLEEEEHSDKKLHNELH-NH2 [Compound 46] | > 8000
B3 | 6820
Ac-FDASLLKIEEEKKKIEELLKLHNESDKKLEEV-NH2 [Compound 4] | > 8000
B4 | 113
B5 | 5530
Ac-SLEQVNKKIEQSLESLKKSDKINQSLEEVNKSDELLEAAAKK-NH2 [Compound 49] | > 8000
Ac-IEQVNKKIEQSLKFIEKSDKLLENVNKGK-NH2 [Positive polypeptide 2] | > 300
